Earlier results, collected in PMC5620257.
Like-named read-outs stand apart in the source and are kept apart here.

Tests used:
PD1 (Homo sapiens) [1] = target: PD1 (Homo sapiens) (UniProt Q15116)
PD1 (Homo sapiens) [2] = target: PD1 (Homo sapiens) (UniProt Q15116); remark: listed apart in the source

Sequence of UniProt Q15116 (Q15116 25-170): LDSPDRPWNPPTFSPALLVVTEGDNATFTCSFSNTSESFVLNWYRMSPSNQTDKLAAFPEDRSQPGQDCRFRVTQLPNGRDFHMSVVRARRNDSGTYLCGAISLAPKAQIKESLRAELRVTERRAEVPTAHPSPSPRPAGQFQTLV

Kd (PD1 (Homo sapiens) [1]): 26.6 µM
Kd (PD1 (Homo sapiens) [2]): 0.77 µM
Substance: PD-L1 (from UniProt Q9NZQ7)
